Results taken from US20160280792A1 (Kyowa Kirin, published 2016).

How the values were obtained:
[1] = biological target: T1, IL-3Rα/GM-CSFRα chimeric protein, region 1 (55-DADYSMP-61) of IL-3Rα replaced by GM-CSFRα sequence, on … (human, UniProt P26951 19-378); test: flow cytometry, labelled antibody at 1 µg/ml, HEK293T cells expressing the construct
T1 construct: Built on IL-3RA-FLAG/pEGFP-N1; they are my translation of the primers; also called Region 1 (A)
T1 chain: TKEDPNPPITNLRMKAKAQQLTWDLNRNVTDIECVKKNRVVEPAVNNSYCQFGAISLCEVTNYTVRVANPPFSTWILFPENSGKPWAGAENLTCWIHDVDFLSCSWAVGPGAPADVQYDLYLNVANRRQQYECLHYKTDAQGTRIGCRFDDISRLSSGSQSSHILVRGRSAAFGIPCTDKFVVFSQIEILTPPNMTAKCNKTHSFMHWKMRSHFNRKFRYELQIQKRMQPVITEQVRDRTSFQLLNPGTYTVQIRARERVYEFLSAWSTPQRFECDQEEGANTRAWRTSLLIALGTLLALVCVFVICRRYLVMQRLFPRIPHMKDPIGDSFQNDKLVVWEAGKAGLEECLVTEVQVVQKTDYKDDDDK

[2] = biological target: T2, IL-3Rα/GM-CSFRα chimeric protein, A domain of IL-3Rα replaced by that of GM-CSFRα, on HEK293T cells (human, UniProt P15509 23-114); test: as above
T2 construct: domain: A domain; The KpnI site (GGTACC) at the junction encodes an extra Gly-Thr; also called A domain substitution
T2 sequence: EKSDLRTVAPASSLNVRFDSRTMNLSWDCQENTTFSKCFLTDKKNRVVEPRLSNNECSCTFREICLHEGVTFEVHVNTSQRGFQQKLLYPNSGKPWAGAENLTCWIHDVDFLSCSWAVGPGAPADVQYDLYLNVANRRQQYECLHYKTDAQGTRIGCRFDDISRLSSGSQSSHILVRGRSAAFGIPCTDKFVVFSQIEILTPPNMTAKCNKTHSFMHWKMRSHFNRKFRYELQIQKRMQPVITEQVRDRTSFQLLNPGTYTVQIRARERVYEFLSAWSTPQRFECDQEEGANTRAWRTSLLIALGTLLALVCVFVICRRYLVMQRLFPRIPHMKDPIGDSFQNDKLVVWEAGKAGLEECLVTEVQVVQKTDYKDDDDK
Protocol: HEK293T cell (ATCC CRL 1268) was used for the preparation of the IL-3Rα/GM-CSFRα chimeric protein expression cell. Using 293Fectin (Invitrogen), the plasmid DNA obtained in the above was introduced as an expression vector into the HEK293T. The HEK293T to which the expression vector was introduced was cultured using a shaker under conditions of 5% CO₂ and 37° C. after 2 days of the introduction, the […] was used for in the flow cytometry analysis.
From 100,000 to 1,000,000 cells of the chimeric protein expression cell were allowed to react for 30 minutes on ice with at a concentration of 1 μg/ml with an AlexaFlour488-labeled human antibody or a commercially available FITC-labeled anti-IL-3Rα mouse antibody (7G3 or 9F5: both from BD Biosciences, 6H6: Acris Antibodies, AC145: Milteny Biotech, 107D2.08: Dendritics). A staining medium (Dulbecco's PBS supplemented with 2% fetal bovine serum, 2 mM EDTA and 0.05% NaN₃) was used for the dilution of antibodies and cells. Next, the cells reacted with antibodies were washed three times with the staining medium and whether the labeled antibody bound to the cell was confirmed by flow cytometry.

[3] = biological target: T3, soluble form of human IL-3Rα protein (extracellular region with C-terminal FLAG tag) (human, UniProt P26951 19-305); test: SPR (Biacore 2000): antibody captured on anti-mouse antibody CM5 chip, soluble IL-3Rα as analyte, 1:1 Langmuir fit
T3 construct: Made in CHOras1 cells, purified on anti-FLAG gel; also called soluble form of IL-3Rα protein; soluble form of human IL-3Rα extracellular region
T3 sequence: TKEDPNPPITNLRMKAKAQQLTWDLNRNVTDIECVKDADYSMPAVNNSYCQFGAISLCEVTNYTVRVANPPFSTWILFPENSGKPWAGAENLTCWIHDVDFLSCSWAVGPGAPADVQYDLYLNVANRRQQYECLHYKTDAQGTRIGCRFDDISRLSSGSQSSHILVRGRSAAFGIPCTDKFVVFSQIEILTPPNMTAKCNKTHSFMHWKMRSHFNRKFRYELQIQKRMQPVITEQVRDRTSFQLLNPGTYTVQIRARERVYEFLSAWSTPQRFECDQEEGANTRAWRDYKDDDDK
Protocol: Specifically, CM5 (research grade) was used for a sensor tip (each GE). Firstly, the CM5 tip was activated by applying an equivalent mixture of 400 mM EDC (N-ethyl-N′-(3-dimethylaminopropyl)carbodiimidehydrochloride) and 100 mM NHS (N-hydroxysuccinimide) to the CM5 tip. Next, an antibody to the human antibody attached to the Human Antibody Capture Kit (GE) (hereinafter, referred to as anti-human antibody antibody) was diluted with the solution attached to the kit and applied thereto, thereby immobilizing the required amount of the anti-human antibody antibody to the CM5 tip. Regarding the mouse antibody to be used as a control, an antibody to the mouse antibody attached to the Mouse Antibody Capture Kit (GE) (hereinafter, referred to as anti-mouse antibody antibody) was diluted with the solution attached to the kit and applied thereto, thereby immobilizing a necessary amount thereof to the CM5 tip. […]
In the analysis, Biaevaluation software (GE) was used and Biaevaluation Software Handbook was referred. Specifically, by carrying out simultaneous analysis of kinetics analysis, employing basically the 1:1 Langmuir binding reaction model and fitting, association rate constant (Ka) and dissociation rate constant (Kd) were calculated, and the value of dissociation constant KD was calculated by the calculation of Kd/Ka.

- binding result [1]: no binding (tested: 1 µg/ml)
- binding result [2]: no binding (tested: 1 µg/ml)
- Kd [3]: 0.566 nM
B1: anti-human IL-3Rα mouse antibody 7G3 (antibody, V domains shown)
VH: EVQLQQSGPELVKPGASVKMSCKASGYTFTDYYMKWVKQSHGKSLEWIGDIIPSNGATFYNQKFKGKATLTVDRSSSTAYMHLNSLTSEDSAVYYCTRSHLLRASWFAYWGQGTLVTVSA
VL: DFVMTQSPSSLTVTAGEKVTMSCKSSQSLLNSGNQKNYLTWYLQKPGQPPKLLIYWASTRESGVPDRFTGSGSGTDFTLTISSVQAEDLAVYYCQNDYSYPYTFGGGTKLEIK
notes: Mouse antibody; the material used in flow cytometry was bought (BD Biosciences, FITC-labelled); Light chain start see note of m7; also called 7G3 (Mouse antibodies); FITC-labeled 7G3 (BD Biosciences)
